Test results reported in PMC3985303.

Target: Guinea pig soluble FcRn (guinea pig)
Assay: SPR

| Kd [µM] | Substance |
| --- | --- |
| 6.8 | human IgG4 purified from myeloma (from UniProt P01861) |
| 5.2 | human IgG1 purified from myeloma (from UniProt P01857) |
| 4.2 | human IgG2 purified from myeloma (from UniProt P01859) |
